This assay concerns the target human UbcH5c, full-length (aa 1-147) (human) (UniProt P61077). Kind of assay: ITC.

The term Kd denotes the concentration at which binding is half-saturated. One may read the stoichiometry N as the number of molecules, sites or subunits per partner or assembly.

Take “human E4B U-box domain (aa 1208-1302) (from UniProt O95155 1208-1302) (domain or fragment)”: the Kd amounted to 67.1 µM, the dH was determined as 2.9 kcal/mol and the stoichiometry N came out at 0.99.

The record behind these values is PMC3005147.
